The values that follow come from patent US20030170726A1, “Peptides sequences comprising one or several protein binding units of the ena/vasp family and the uses thereof” (priority 2000, published 2003).

The subject of test [1] is proteins of the Ena/VASP family. Nature of the test: Actin polymerisation on beads coated with proteins binding to the Ena/VASP family (beads of the invention), in lysed cell supernatants. It is filed as biochemical, mammal, in particular human. The settings on record: for inhibition of actin polymerisation detected using the beads of the invention: substance added to lysed mammal, in particular human, cell supernatants. An excerpt: a stage of placing the tested molecule in the presence of a reagent as defined above, in a medium containing actin and the elements necessary for actin polymerisation defined above, in particular in an extract of lysed cell supernatant,
followed by the optional detection of an inhibition or an activation of the process of actin polymerisation at the surface of said reagent, in comparison to a control (namely a medium as described above not containing the tested molecule, and in which is found said reagent), corresponding respectively to an effect of inhibition or stimulation of the tested molecule on the formation of the actin cytoskeleton by the mechanism involving the abovementioned protein or peptide bond or their derived sequence, with a protein of the Ena protein/VASP family.
The abovementioned medium in which the tested molecule is placed in the presence of said reagent, advantageously contains a compound labelled in particular by fluorescence, making it possible to detect actin polymerisation on said reagent. By way of illustration, the abovementioned labelled compound is a fluorescent derivative of actin, such as actin-rhodamine (commercially available), making it possible to visualize actin polymerisation by epifluorescence microscopy.
The GST-ActA-Pro protein was adsorbed onto 500 nm latex beads (Polyscience Inc, 400 Valley Road, Warrington Pa., USA) according to the manufacturers' instructions.

The test system of test [2] is Arp2/3 complex. Nature of the test: Actin polymerisation on beads coated with WASP protein, in lysed cell supernatants. It is filed as biochemical. The note with it: substance added to lysed mammal, in particular human. An excerpt: a stage of placing, in a medium containing actin and the elements necessary for actin polymerisation i.e. the Arp2/3 complex, in particular in an extract of lysed cell supernatant, the tested molecule with a reagent comprising WASP family proteins in the eucaryotic cells, in particular human or of other mammal cells, or insect cells, or from micro-organisms such as yeasts, or peptide fragments of these WASP family proteins, said peptide fragments having the property of the WASP family proteins to polymerise the actin by inducing cellular motility, or peptide sequences derived from WASP family proteins or the abovementioned peptide fragments, in particular by substitution of one or more amino acids of these fragments, said derived sequences having the abovementioned property of the WASP family proteins and said fragments of the latter, said abovementioned WASP family proteins, or peptide fragments or derived sequences, being bound or adsorbed to a support as defined above,
followed by the optional detection of an inhibition or an activation of the process of actin polymerisation at the surface of said reagent, in comparison to a control, corresponding respectively to an effect of inhibition or of stimulation of the tested molecule on the formation of the actin cytoskeleton by the mechanism involving the bonding of said WASP family proteins, or abovementioned peptide fragments or derived sequences, with the Arp2/3 complex.

In test [3] the test system is mitochondria carrying zyxin at their surface. Nature of the test: Actin polymerisation in mitochondria carrying zyxin at their surface. Type of test: cell-based. The source says: Furthermore, as a number of processes dependant on actin polymerisation require the recruitment and activation of the Arp2/3 complex, the Inventors have searched for the presence of this complex in the mitochondria carrying zyxin at their surface.

With “ActA-Pro: ActA protein fragment of Listeria monocytogenes, 350 amino acids, positions 235 to 584 of SEQ ID NO 2”, in test [1], the “inhibition of actin polymerisation detected using the beads of the invention” value (from here on “inhibition … of the invention”) is “inhibited”. In addition, in test [2], the “inhibition of actin polymerisation detected using beads coated with WASP protein” value (“inhibition … with WASP protein” below) is “not inhibited”.

B1: GST-ActA-Pro: recombinant protein composed of GST (237 residues) and proline rich and carboxy-terminal central parts of ActA (350 residues, SEQ ID NO 6) (protein)
chain: DFPPPPTDEELRLALPETPMLLGFNAPATSEPSSFEFPPPPTDEELRLALPETPMLLGFNAPATSEPSSFEFPPPPTEDELEIIRETASSLDSSFTRGDLASLRNAINRHSQNFSDFPPIPTEEELNGRGGRPTSEEFSSLNSGDFTDDENSETTEEEIDRLADLRDRGTGKHSRNAGFLPLNPFASSPVPSLSPKVSKISAPALISDITKKTPFKNPSQPLNVFNKKTTTKTVTKKPTPVKTAPKLAELPATKPQETVLRENKTPFIEKQAETNKQSINMPSLPVIQKEATESDKEEMKPQTEEKMVEESESANNANGKNRSAGIEEGKLIAKSAEDEKAKEEPGNHTT
In the case of B1, the “nucleation of actin by the coated beads” value in test [1] (protein adsorbed onto 500 nm latex beads, added to extracts prepared from cells) is “capable of nucleating the actin”.

B2: WASP: WASP protein, expressed from the WAS gene mutated in Wiskott-Aldrich Syndrome; interacts with the Arp2/3 complex (protein, UniProt P42768 2-502, looked up)
Actin nucleation-promoting …: SGGPMGGRPGGRGAPAVQQNIPSTLLQDHENQRLFEMLGRKCLTLATAVVQLYLALPPGAEHWTKEHCGAVCFVKDNPQKSYFIRLYGLQAGRLLWEQELYSQLVYSTPTPFFHTFAGDDCQAGLNFADEDEAQAFRALVQEKIQKRNQRQSGDRRQLPPPPTPANEERRGGLPPLPLHPGGDQGGPPVGPLSLGLATVDIQNPDITSSRYRGLPAPGPSPADKKRSGKKKISKADIGAPSGFKHVSHVGWDPQNGFDVNNLDPDLRSLFSRAGISEAQLTDAETSKLIYDFIEDQGGLEAVRQEMRRQEPLPPPPPPSRGGNQLPRPPIVGGNKGRSGPLPPVPLGIAPPPPTPRGPPPPGRGGPPPPPPPATGRSGPLPPPPPGAGGPPMPPPPPPPPPPPSSGNGPAPPPLPPALVPAGGLAPGGGRGALLDQIRQGIQLNKTPGAPESSALQPPPQSSEGLVGALMHVMQKRSRAIHSSDEGEDQAGDEDEDDEWDD
For B2, the “inhibition … of the invention” value in test [1] is on record as “not inhibited”. In addition, the “inhibition … with WASP protein” value in test [2] is on record as “inhibited”. Further, the “inhibition of actin polymerisation in the mitochondria” value in test [3] is on record as “does not inhibit”.

B3: N-WASP: N-WASP protein, approximately 45% sequence identity with human WASP protein; interacts with the Arp2/3 complex (protein, UniProt O00401 2-505, looked up)
Actin nucleation-promoting …: SSVQQQPPPPRRVTNVGSLLLTPQENESLFTFLGKKCVTMSSAVVQLYAADRNCMWSKKCSGVACLVKDNPQRSYFLRIFDIKDGKLLWEQELYNNFVYNSPRGYFHTFAGDTCQVALNFANEEEAKKFRKAVTDLLGRRQRKSEKRRDPPNGPNLPMATVDIKNPEITTNRFYGPQVNNISHTKEKKKGKAKKKRLTKADIGTPSNFQHIGHVGWDPNTGFDLNNLDPELKNLFDMCGISEAQLKDRETSKVIYDFIEKTGGVEAVKNELRRQAPPPPPPSRGGPPPPPPPPHNSGPPPPPARGRGAPPPPPSRAPTAAPPPPPPSRPSVAVPPPPPNRMYPPPPPALPSSAPSGPPPPPPSVLGVGPVAPPPPPPPPPPPGPPPPPGLPSDGDHQVPTTAGNKAALLDQIREGAQLKKVEQNSRPVSCSGRDALLDQIRQGIQLKSVADGQESTPPTPAPTSGIVGALMEVMQKRSKAIHSSDEDEDEDDEEDFEDDDEWED
As for B3, in test [1], the “inhibition … of the invention” value is listed as “not inhibited”. Also, the “inhibition … with WASP protein” value in test [2] is recorded as “inhibited”.
